What all share (assay): SPR
Test [1] concerns the target RpfG-MBP (Lysobacter enzymogenes).
Test [2] concerns the target HtsH3C-Myc-His (cytoplasmic fragment of HtsH3) (Lysobacter enzymogenes).
Test [3] deals with HtsH2C-HA-His (cytoplasmic fragment of HtsH2) (Lysobacter enzymogenes).

Our source for the Kd values is article doi:10.1101/2020.07.13.201541.

“HtsH3C-Myc-His (cytoplasmic fragment of HtsH3) (domain or fragment)” showed a Kd in test [1] of 0.168 nM.

Turning to “HtsH2C-HA-His (cytoplasmic fragment of HtsH2) (domain or fragment)”, the Kd in test [2] came out at 0.178 nM; in test [1], 0.3 nM.

Regarding “HtsH1C-Flag-His (cytoplasmic fragment of HtsH1) (domain or fragment)”, the Kd in test [3] is 0.0962 nM; in test [2], 0.16 nM; in test [1] it was 0.0668 nM.
